For three molecules, stoichiometry N (linker histone molecules per nucleosome) results are on record in article PMC2111872.

The experiment concerns the target H1- and H5-depleted chicken erythrocyte chromatin (DNA-core histone complex) (chicken (endogenous in erythrocytes)). As to the kind of experiment: co-sedimentation.

“calf thymus histone H1 (from UniProt P02253 1-213) (natural protein)” showed a stoichiometry N (linker histone molecules per nucleosome) of 2. For the molecule “chicken erythrocyte histone H1 (from UniProt P09987 1-218) (natural protein)”, the stoichiometry N (linker histone molecules per nucleosome) was 2.

B1: chicken erythrocyte histone H5 (natural protein)
chain: MTESLVLSPAPAKPKRVKASRRSASHPTYSEMIAAAIRAEKSRGGSSRQSIQKYIKSHYKVGHNADLQIKLSIRRLLAAGVLKQTKGVGASGSFRLAKSDKAKRSPGKKKKAVRRSTSPKKAARPRKARSPAKKPKATARKARKKSRASPKKAKKPKTVKAKSRKASKAKKVKRSKPRAKSGARKSPKKK
In turn, B1 showed a stoichiometry N (linker histone molecules per nucleosome) of 2.
